The IC50 is the concentration that gives 50% inhibition. Low values mean greater potency in that assay, high ones weaker potency in that assay. What is called Kd is the constant that tells how readily two partners part at equilibrium. By kon is commonly meant the second-order rate constant of association. Lower therefore signals slow association. A word on the koff: it is the first-order rate constant of dissociation. Lower therefore signals a long-lived complex.

The target of experiment [1] is T1, human RANK-L (human, UniProt O14788 140-317, limits assumed).
T1 construct: Soluble protein, used coated, biotinylated or labelled in ELISA, AlphaScreen, FMAT and Biacore; also called hRANK-L; soluble human RANK-L
T1 sequence (looked up): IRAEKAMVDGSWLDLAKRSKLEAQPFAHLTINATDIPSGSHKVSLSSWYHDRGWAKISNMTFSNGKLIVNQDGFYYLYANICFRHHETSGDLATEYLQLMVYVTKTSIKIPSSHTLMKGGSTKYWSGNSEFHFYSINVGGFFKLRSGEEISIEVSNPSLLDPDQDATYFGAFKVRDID
The experiment is described as follows: AlphaScreen, biotin-hRANK-L / RANK-huFc beads. On the technique in general: In Alpha technology, singlet oxygen from a donor bead excites a nearby acceptor bead.

Experiment [2] has as its target T1, human RANK-L. As to the kind of experiment: FMAT, ALEXA647-hRANK-L / RANK on HEK293T cells.
Experiment [3] addresses T1, human RANK-L. The experiment is described as follows: SPR Biacore 3000, hRANK-L on CM5, 100 nM Nanobody; only indicative (one concentration). How it is done: (§1) Binding kinetics of the humanized versions of Nanobodu RANL13 were also analysed by Surface Plasmon Resonance (Biacore 3000). […] Nanobody binding was assessed at one concentration (100 nM). Each Nanobody was injected for 4 minutes at a flow rate of 45 μl/min to allow binding to chip-bound antigen. Next, binding buffer without Nanobody was sent over the chip at the same flow rate to allow spontaneous dissociation of bound Nanobody.

Experiment [4] concerns the target T1, human RANK-L. As to the kind of experiment: SPR Biacore 3000, hRANK-L on CM5, 100 nM Nanobody. How it is done: as §1
Background: In SPR one partner is held on a chip, and binding of the other changes the refractive index at the surface.

Experiment [5] has as its target T1, human RANK-L. The experiment is described as follows: AlphaScreen, biotin-hRANK-L / RANK-huFc beads. The source holds these as a separate data set.

B1: RANKL94biv (VHH)
chain: EVQLVESGGGLVQAGGSLRLTCAASGRTFRSYAMGWFRQAPGKEREFVAAINYSGGSTNYADSVKGRFTISRDNAKNTLYLQMNSLEPEDTAVYYCAAGSGYASLSYYSTERAYTYWGQGTQVTVSSGGGGSGGGGSGGGGSEVQLVESGGGLVQAGGSLRLTCAASGRTFRSYAMGWFRQAPGKEREFVAAINYSGGSTNYADSVKGRFTISRDNAKNTLYLQMNSLEPEDTAVYYCAAGSGYASLSYYSTERAYTYWGQGTQVTVSS
notes: Bivalent Nanobody; also called RANKL9-15GS-RANKL9
For the molecule B1, the figures for the half-inhibitory concentration (IC50) in the experiment with human RANK-L [1] and with human RANK-L [2] were 0.072 nM and 0.03 nM, respectively.

B2: RANKL93biv (VHH)
chain: EVQLVESGGGLVQAGGSLRLTCAASGRTFRSYAMGWFRQAPGKEREFVAAINYSGGSTNYADSVKGRFTISRDNAKNTLYLQMNSLEPEDTAVYYCAAGSGYASLSYYSTERAYTYWGQGTQVTVSSGGGGSGGGGSGGGGSGGGGSGGGGSGGGGSEVQLVESGGGLVQAGGSLRLTCAASGRTFRSYAMGWFRQAPGKEREFVAAINYSGGSTNYADSVKGRFTISRDNAKNTLYLQMNSLEPEDTAVYYCAAGSGYASLSYYSTERAYTYWGQGTQVTVSS
notes: Bivalent Nanobody; also called RANKL9-30GS-RANKL9
As for B2, the values for the IC50 in the experiment with human RANK-L [1] and in the experiment with human RANK-L [2] were 0.066 nM and 0.048 nM, respectively.

B3: RANKL182biv (VHH)
chain: EVQLVESGGGLVQAGGSLRLSCAASGRTFSRSAMGWFRQAPGKEREFVGFITGSGGTTYYGESVKGRFTISRDNAQNPVYLQMNSLKPEDTAVYYCGVYRRTYISSTYSESSEYDYWGQGTQVTVSSGGGGSGGGGSGGGGSGGGGSEVQLVESGGGLVQAGGSLRLSCAASGRTFSRSAMGWFRQAPGKEREFVGFITGSGGTTYYGESVKGRFTISRDNAQNPVYLQMNSLKPEDTAVYYCGVYRRTYISSTYSESSEYDYWGQGTQVTVSS
notes: Bivalent Nanobody; also called RANKL18-20GS-RANKL18
As for B3, the half-inhibitory concentration (IC50) amounted to 0.089 nM with human RANK-L [1] and 0.076 nM with human RANK-L [2].

B4: RANKL18hum1 (VHH, name in Kabat numbering)
VHH: EVQLVESGGGLVQPGGSLRLSCAASGFTFSRSAMGWFRQAPGKGREFVGFITGSGGTTYYGESVKGRFTISRDNAQNPVYLQMNSLRPEDTAVYYCGVYRRTYISSTYSESSEYDYWGQGTLVTVSS
In the experiment with human RANK-L [3], B4 showed a Kd of 1.56 nM and a kon of 151000 M⁻¹ s⁻¹. This molecule also yielded an off-rate (koff) with human RANK-L [4] of 0.000236 s⁻¹. In the experiment with human RANK-L [5], this molecule displayed a concentration for half-maximal inhibition (IC50) of 3.15 nM.

B5: RANKL18hum5 (VHH)
VHH: EVQLVESGGGLVQPGGSLRLSCAASGRTFSRSAMGWFRQAPGKGREFVGFITGSGGTTYYGESVKGRFTISRDNAQNPVYLQMNSLRPEDTAVYYCAVYRRTYISSTYSESSEYDYWGQGTLVTVSS
Regarding B5, in the experiment with human RANK-L [3], the equilibrium dissociation constant (Kd) was determined as 0.232 nM and the kon was determined as 429000 M⁻¹ s⁻¹. The molecule further came in with a koff with human RANK-L [4] of 9.94e-05 s⁻¹. The same molecule came in with a 50% inhibitory concentration (IC50) with human RANK-L [5] of 0.253 nM.

B6: RANKL18hum2 (VHH, name in Kabat numbering)
VHH: EVQLVESGGGLVQPGGSLRLSCAASGRTFSRSAMGWFRQAPGKGREFVSFITGSGGTTYYGESVKGRFTISRDNAQNPVYLQMNSLRPEDTAVYYCGVYRRTYISSTYSESSEYDYWGQGTLVTVSS
For B6, in the experiment with human RANK-L [3], the affinity, expressed as Kd, was 2.73 nM and the kon was found to be 63400 M⁻¹ s⁻¹. This molecule also registered a koff in the experiment with human RANK-L [4] of 0.000173 s⁻¹. Also, inhibition with human RANK-L [5] was half-maximal at 3.19 nM (IC50).

B7: RANKL18hum7 (VHH)
VHH: EVQLVESGGGLVQPGGSLRLSCAASGRTFSRSAMGWFRQAPGKGREFVGFITGSGGTTYYADSVKGRFTISRDNAQNPLYLQMNSLRPEDTAVYYCAVYRRTYISSTYSESSEYDYWGQGTLVTVSS
As to B7, in the experiment with human RANK-L [3], the Kd worked out at 1.5 nM. Moreover, in the experiment with human RANK-L [4], the dissociation rate constant (koff) was 0.00027 s⁻¹. The IC50 with human RANK-L [5] came out at 0.572 nM.

B8: RANKL91biv (VHH)
chain: EVQLVESGGGLVQAGGSLRLTCAASGRTFRSYAMGWFRQAPGKEREFVAAINYSGGSTNYADSVKGRFTISRDNAKNTLYLQMNSLEPEDTAVYYCAAGSGYASLSYYSTERAYTYWGQGTQVTVSSGGGGSGGGSEVQLVESGGGLVQAGGSLRLTCAASGRTFRSYAMGWFRQAPGKEREFVAAINYSGGSTNYADSVKGRFTISRDNAKNTLYLQMNSLEPEDTAVYYCAAGSGYASLSYYSTERAYTYWGQGTQVTVSS
notes: Bivalent Nanobody; also called RANKL9-9GS-RANKL9
As for B8, the IC50 with human RANK-L [1] turned out to be 0.153 nM; with human RANK-L [2] it was 0.09 nM.

B9: RANKL131 (VHH)
chain: EVQLVESGGGLVQAGGSLRLSCAASGRTFRSYPMGWFRQAPGKEREFVASITGSGGSTYYADSVKGRFTISRDNAKNTVYLQMNSLRPEDTAVYSCAAYIRPDTYLSRDYRKYDYWGQGTQVTVSSGGGGSGGGSEVQLVESGGGLVQAGGSLRLSCAASGRTFRSYPMGWFRQAPGKEREFVASITGSGGSTYYADSVKGRFTISRDNAKNTVYLQMNSLRPEDTAVYSCAAYIRPDTYLSRDYRKYDYWGQGTQVTVSS
notes: Bivalent Nanobody; also called RANKL13-9GS-RANKL13
In the case of B9, the IC50 with human RANK-L [1] amounted to 0.019 nM; in the experiment with human RANK-L [2] it was 0.023 nM.

B10: RANKL183biv (VHH)
chain: EVQLVESGGGLVQAGGSLRLSCAASGRTFSRSAMGWFRQAPGKEREFVGFITGSGGTTYYGESVKGRFTISRDNAQNPVYLQMNSLKPEDTAVYYCGVYRRTYISSTYSESSEYDYWGQGTQVTVSSGGGGSGGGGSGGGGSGGGGSGGGGSGGGGSEVQLVESGGGLVQAGGSLRLSCAASGRTFSRSAMGWFRQAPGKEREFVGFITGSGGTTYYGESVKGRFTISRDNAQNPVYLQMNSLKPEDTAVYYCGVYRRTYISSTYSESSEYDYWGQGTQVTVSS
notes: Bivalent Nanobody; also called RANKL18-30GS-RANKL18
On to B10, for which the half-maximal inhibitory concentration (IC50) with human RANK-L [1] came to 0.049 nM; with human RANK-L [2], 0.052 nM.

B11: RANKL181biv (VHH)
chain: EVQLVESGGGLVQAGGSLRLSCAASGRTFSRSAMGWFRQAPGKEREFVGFITGSGGTTYYGESVKGRFTISRDNAQNPVYLQMNSLKPEDTAVYYCGVYRRTYISSTYSESSEYDYWGQGTQVTVSSGGGGSGGGSEVQLVESGGGLVQAGGSLRLSCAASGRTFSRSAMGWFRQAPGKEREFVGFITGSGGTTYYGESVKGRFTISRDNAQNPVYLQMNSLKPEDTAVYYCGVYRRTYISSTYSESSEYDYWGQGTQVTVSS
notes: Bivalent Nanobody; also called RANKL18-9GS-RANKL18
For B11, the IC50 turned out to be 0.113 nM with human RANK-L [1] and 0.134 nM with human RANK-L [2].

B12: RANKL18hum6Bi_25 (VHH)
chain: EVQLVESGGGLVQPGGSLRLSCAASGRTFSRSAMGWFRQAPGKGREFVGFITGSGGTTYYADSVKGRFTISRDNAQNPVYLQMNSLRPEDTAVYYCAVYRRTYISSTYSESSEYDYWGQGTLVTVSSGGGGSGGGGSGGGGSGGGGSGGGGSEVQLVESGGGLVQPGGSLRLSCAASGRTFSRSAMGWFRQAPGKGREFVGFITGSGGTTYYADSVKGRFTISRDNAQNPVYLQMNSLRPEDTAVYYCAVYRRTYISSTYSESSEYDYWGQGTLVTVSS
notes: Bivalent humanized Nanobody; also called RANKL18Hum6-25GS-RANKL18Hum6
In the case of B12, the IC50 in the experiment with human RANK-L [1] amounted to 0.1 nM; in the experiment with human RANK-L [2] it was 0.038 nM.

B13: RANKL13hum3 (VHH, name in Kabat numbering)
VHH: EVQLVESGGGLVQPGGSLRLSCAASGRTFRSYPMGWFRQAPGKGREFVSSITGSGGSTYYADSVKGRFTISRDNAKNTLYLQMNSLRPEDTAVYSCAAYIRPDTYLSRDYRKYDYWGQGTLVTVSS
notes: also called RANL13hum3
Turning to B13, in the experiment with human RANK-L [3], binding was characterised by a dissociation constant (Kd) of 0.264 nM and the kon was found to be 659000 M⁻¹ s⁻¹. For the same molecule, in the experiment with human RANK-L [4], the koff came out at 0.000174 s⁻¹. The molecule further came in with an IC50 with human RANK-L [5] of 0.196 nM.

B14: RANKL13hum4 (VHH, name in Kabat numbering)
VHH: EVQLVESGGGLVQPGGSLRLSCAASGRTFRSYPMGWFRQAPGKGREFVASITGSGGSTYYADSVKGRFTISRDNAKNTLYLQMNSLRPEDTAVYYCAAYIRPDTYLSRDYRKYDYWGQGTLVTVSS
In the experiment with human RANK-L [3], B14 returned a Kd of 0.538 nM and a kon of 379000 M⁻¹ s⁻¹. This molecule yielded an off-rate (koff) with human RANK-L [4] of 0.000204 s⁻¹. The same molecule gave a 50% inhibitory concentration (IC50) with human RANK-L [5] of 0.223 nM.

B15: RANKL92biv (VHH)
chain: EVQLVESGGGLVQAGGSLRLTCAASGRTFRSYAMGWFRQAPGKEREFVAAINYSGGSTNYADSVKGRFTISRDNAKNTLYLQMNSLEPEDTAVYYCAAGSGYASLSYYSTERAYTYWGQGTQVTVSSGGGGSGGGGSGGGGSGGGGSEVQLVESGGGLVQAGGSLRLTCAASGRTFRSYAMGWFRQAPGKEREFVAAINYSGGSTNYADSVKGRFTISRDNAKNTLYLQMNSLEPEDTAVYYCAAGSGYASLSYYSTERAYTYWGQGTQVTVSS
notes: Bivalent Nanobody; also called RANKL9-20GS-RANKL9
As to B15, the figures for the half-maximal inhibitory concentration (IC50) with human RANK-L [1] and in the experiment with human RANK-L [2] were 0.07 nM and 0.032 nM, respectively.

B16: RANKL18hum6Bi_30 (VHH)
chain: EVQLVESGGGLVQPGGSLRLSCAASGRTFSRSAMGWFRQAPGKGREFVGFITGSGGTTYYADSVKGRFTISRDNAQNPVYLQMNSLRPEDTAVYYCAVYRRTYISSTYSESSEYDYWGQGTLVTVSSGGGGSGGGGSGGGGSGGGGSGGGGSGGGGSEVQLVESGGGLVQPGGSLRLSCAASGRTFSRSAMGWFRQAPGKGREFVGFITGSGGTTYYADSVKGRFTISRDNAQNPVYLQMNSLRPEDTAVYYCAVYRRTYISSTYSESSEYDYWGQGTLVTVSS
notes: Bivalent humanized Nanobody; also called RANKL18Hum6-30GS-RANKL18Hum6
Take B16: the figures for the 50% inhibitory concentration (IC50) with human RANK-L [1] and with human RANK-L [2] were 0.05 nM and 0.038 nM, respectively.

Values taken from patent US20110002929A1 (Ablynx, published 2011).
